Here are results for two molecules from US20260102474A1 (published 2026).

The EC50 is the midpoint of the concentration-response curve. Lower therefore signals a more potent agent. Usually IC50 stands for the midpoint of a concentration-inhibition curve.

Assay [1] deals with SARS-COV-2 spike protein on Caco-2 cells infected with the original version of SARS-COV-2 (SARS-COV-2-mNG) (SARS-COV-2, UniProt P0DTC2 14-1273). Nature of the assay: flow.
For assay [2], the target named is SARS-COV-2 full-length trimeric spike protein, parental (SARS-COV-2, UniProt P0DTC2 14-1213). In words: competition.

B1: ACE2-M2-FcKO (Fc fusion)
chain: STIEEQAKYFLDYFNVQAEDLFYQSSLASWNYNTNITEENVQNMNNAGDKWSAFLKEQSTYAQRYPLQEIQNLTVKLQLQALQQNGSSVLSEDKSKRLNTILNTMSTIYSTGKVCNPDNPQECLLLEPGLNEIMANSLDYNERLWAWESWRSEVGKQLRPLYEEYVVLKNEMARANHYEDYGDYWRGDYEVNGVDGYDYSRGQLIEDVEHTFEEIKPLYEHLHAYVRAKLMNAYPSYISPIGCLPAHLLGDMWGRFWTNLYSLTVPFGQKPNIDVTDAMVDQAWDAQRIFKEAEKFFVSVGLPNMTQGFWEYSMLTDPGNVQKAVCHPTAWDLGKGDFRILMCTKVTMDDFLTAHREMGRIQYDMAYAAQPFLLRNGANEGFHEAVGEIMSLSAATPKHLKSIGLLSPDFQEDNETEINFLLKQALTIVGTLPFTYMLEKWRWMVFKGEIPKDQWMKKWWEMKREIVGVVEPVPHDETYCDPASLFHVSNDYSFIRYYTRTLYQFQFQEALCQAAKHEGPLHKCDISNSTEAGQKLFNMLRLGKSEPWTLALENVVGAKNMNVRPLLNYFEPLFTWLKDQNKNSFVGWSTDWSPYADQSIKVRISLKSALGDKAYEWNDNEMYLFRSSVAYAMRQYFLKVKNQMILFGEEDVRVANLKPRISFNFFVTAPKNVSDIIPRTEVEKAIRMSRSRINDAFRLNDNSLEFLGIQPTLGPPNQPPVSSGGGGSGGGGSGGGGSEPKSSDKTHTCPPCPAPPVAGPSVFLFPPKPKDTLMISRTPEVTCVVVGVSHEDPEVKFNWYVDGVEVHNAKTKPREEQYNSTYRVVSVLTVLHQDWLNGKEYKCKVSNKQLPSPIEKTISKAKGQPGQPREPQVYTLPPSRDELTKNQVSLTCLVKGFYPSDIAVEWESNGQPENNYKTTPPVLDSDGSFFLYSKLTVDKSRWQQGNVFSCSVMHEALHNHYTQKSLSLSPGK
In assay [1], B1 had an EC50 of 0.48 µg/mL. Also, in assay [2], the IC50 came to 9.4 nM.

B2: ACE2-M1-FcKO (Fc fusion)
chain: STIEEQAKYFLDKFNHEAEDLFYQSSLASWNYNTNITEENVQNMNNAGDKWSAFLKEQSTYAQMYPLQEIQNLTVKLQLQALQQNGSSVLSEDKSKRLNTILNTMSTIYSTGKVCNPDNPQECLLLEPGLNEIMANSLDYNERLWAWESWRSEVGKQLRPLYEEYVVLKNEMARANHYEDYGDYWRGDYEVNGVDGYDYSRGQLIEDVEHTFEEIKPLYEHLHAYVRAKLMNAYPSYISPIGCLPAHLLGDMWGRFWTNLYSLTVPFGQKPNIDVTDAMVDQAWDAQRIFKEAEKFFVSVGLPNMTQGFWEYSMLTDPGNVQKAVCHPTAWDLGKGDFRILMCTKVTMDDFLTAHREMGRIQYDMAYAAQPFLLRNGANEGFHEAVGEIMSLSAATPKHLKSIGLLSPDFQEDNETEINFLLKQALTIVGTLPFTYMLEKWRWMVFKGEIPKDQWMKKWWEMKREIVGVVEPVPHDETYCDPASLFHVSNDYSFIRYYTRTLYQFQFQEALCQAAKHEGPLHKCDISNSTEAGQKLFNMLRLGKSEPWTLALENVVGAKNMNVRPLLNYFEPLFTWLKDQNKNSFVGWSTDWSPYADQSIKVRISLKSALGDKAYEWNDNEMYLFRSSVAYAMRQYFLKVKNQMILFGEEDVRVANLKPRISFNFFVTAPKNVSDIIPRTEVEKAIRMSRSRINDAFRLNDNSLEFLGIQPTLGPPNQPPVSSGGGGSGGGGSGGGGSEPKSSDKTHTCPPCPAPPVAGPSVFLFPPKPKDTLMISRTPEVTCVVVGVSHEDPEVKFNWYVDGVEVHNAKTKPREEQYNSTYRVVSVLTVLHQDWLNGKEYKCKVSNKQLPSPIEKTISKAKGQPGQPREPQVYTLPPSRDELTKNQVSLTCLVKGFYPSDIAVEWESNGQPENNYKTTPPVLDSDGSFFLYSKLTVDKSRWQQGNVFSCSVMHEALHNHYTQKSLSLSPGK
B2 registered a half-maximal effective concentration (EC50) in assay [1] of 0.29 µg/mL. The concentration for half-maximal inhibition (IC50) in assay [2] was found to be 3.8 nM.
